Columns and labels:
P13 tumor = conditions: i.v. equimolar mix, 2 h circulation
Description: (§1) In vivo play-off was used to evaluate systemic homing of peptide phage to xenograft tumor models. The in vitro selected candidate TNC-C binding peptides, phages displaying published tumor homing peptides, and control peptides were amplified and purified by precipitation with PEG-8000 (Sigma-Aldrich, St. Louis, MO, USA), followed by CsCl2 gradient ultracentrifugation and dialysis. The amplified phage peptides were pooled in equimolar quantities, and injected intravenously (final 1×10^10 pfu in 200 μl PBS) in tumor-bearing mice for two hour circulation, after which mice were anesthetized with 2.5% avertin and intracardially perfused with DMEM intracardially. The tumors and organs were collected in lysogeny broth (LB)+1% NP40, and the tissues were homogenized using a hand-held homogenizer for phage peptide rescue. Phages in the tissue lysates were amplified in E. coli, purified by precipitation with PEG-8000 and DNA was extracted using a DNA extraction kit (High Pure PCR Template Preparation Kit; Roche, Basel, Switzerland). Next-generation sequencing of phage genomic DNA evaluated the representation of each phage in input mixture, in tumor and control organs with Ion Torrent system (Thermo Fisher Scientific, Waltham, MA, USA). The next generation deep sequencing of phage library was done using Ion Torrent according to the manufacturer's protocol with slight modification. The FASTQ data from Ion Torrent was processed by a custom python script that identified the barcodes, constant flanking residues, and extracted the reads of the correct length.

P3 stem cell-like tumor = conditions: i.v. equimolar mix, 2 h circulation
Description: as §1

[1] = tested on: PC3 prostate carcinoma xenografts; conditions: i.v. equimolar mix, 2 h circulation
Description: as §1

U87-MG glioblastoma = conditions: i.v. equimolar mix, 2 h circulation
Description: as §1

WT-GBM tumor = conditions: i.v. equimolar mix, 2 h circulation
Description: as §1

normal brain = conditions: i.v. equimolar mix, 2 h circulation
Description: as §1

FN-EDB and TNC-C [2] = assay: Peptide-phage binding to FN-EDB- and TNC-C-coated magnetic beads; conditions: phage-displayed peptide
Procedure: (§2) To identify bispecific peptides that interact with both TNC-C and FN-EDB, cross screens were performed on both targets. During the first round of selection, microtiter plates coated with 20 μg/ml recombinant purified TNC-C were blocked with PBS containing 1% bovine serum albumin (BSA), followed by incubation with 5×10^8 pfu of phages in PBS at 4° C. overnight, by washes to remove background, and by phage rescue and amplification in BLT5403 strain of E. coli (Novagen, EMD Biosciences, MA, USA) (Teesalu et al., Methods Enzymol. 503:35-56 (2012)). The following rounds of biopanning were carried on Ni-NTA Magnetic Agarose Beads (QIAGEN, Hilden, Germany) coated with hexahistidine-tagged FN-EDB (3 μg/μl beads) at room temperature. After 5 rounds of selection, a set of random clones was sequenced, and individual peptide-phage clones and control (G7 peptide-displaying or insertless) phages were incubated with FN-EDB and TNC-C-coated magnetic beads. RPARPAR phage (SEQ ID NO:5) and His-tagged NRP-1 b1b2 domain were used as positive control (Teesalu et al., Proc. Natl. Acad. Sci. U.S.A 106:16157-62 (2009)). To address the specificity of the peptide phage binding to the FN-EDB and TNC-C, the protein-coated beads were pre-incubated with 20 μg/ml blocking rabbit polyclonal antibodies.

NRP-1 b1b2 domain = target: T1, NRP-1 b1b2 domain (Homo sapiens, UniProt O14786); assay: PL1 phage binding to recombinant control protein NRP-1; conditions: phage-displayed peptide
T1 construct: His-tagged NRP-1 b1b2 domain were used as positive control; His tag; made in house
T1 sequence (O14786 273-586 limits assumed): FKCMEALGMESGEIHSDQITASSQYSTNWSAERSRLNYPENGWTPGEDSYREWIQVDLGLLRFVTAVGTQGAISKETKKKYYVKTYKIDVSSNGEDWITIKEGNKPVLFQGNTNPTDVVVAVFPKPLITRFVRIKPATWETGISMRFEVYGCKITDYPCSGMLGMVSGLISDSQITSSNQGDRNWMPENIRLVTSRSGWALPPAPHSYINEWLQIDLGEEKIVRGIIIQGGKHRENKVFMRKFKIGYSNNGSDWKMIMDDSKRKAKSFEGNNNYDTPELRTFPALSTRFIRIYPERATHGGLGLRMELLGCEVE
Procedure: as §2

FN-EDB and TNC-C [3] = assay: Cell-free peptide binding assay (immobilized FAM-peptide, His-tagged protein, ELISA)
Procedure: The FAM-labeled peptides were coated on ELISA plates (Nunc Maxisorp, Thermo Fisher Scientific Inc., MA, USA), blocked with PBS containing 1% BSA, and incubated with recombinant proteins at 2 μg/well in PBS for 6 h. The protein was detected using an anti-His-tag antibody, followed by horseradish peroxidase-conjugated secondary antibody, chromogenic reaction, and measurement of absorbance at 450 nm with a microplate reader (Tecan Austria GmbH, Gradig, Austria).

[4] = tested on: Neuropilin 1 b1b2 domain (NRP1) and Fn-EDB; assay: PL2 phage binding to purified NRP1 together with Fn-EDB
Procedure: For cell-free binding studies using individually amplified phage clones; phage was incubated with Fn-EDB coated magnetic beads as described above. RPARPAR phage on NRP-1-coated beads was used as a positive control (Teesalu et al., 2009), Nucleolin (NCL) and Tenascin C-C domain (TNC-C) were used as negative control. Phage clones displaying heptaglycine peptide (GGGGGGG, G7 (SEQ ID NO:20)) or insert less phage clones were used as negative controls.

Row | Binding Specificity (FN-EDB and TNC-C [2]) | interaction of phage with recombinant control protein NRP-1 (NRP-1 b1b2 domain) | Substance | Representation of phage in tumors (fold G7 control phage), P13 (P13 tumor) | Representation of phage in tumors (fold G7 control phage), P3 SCL (P3 stem cell-like tumor) | Representation of phage in tumors (fold G7 control phage), PC3 [1] | Representation of phage in tumors (fold G7 control phage), U87-MG (U87-MG glioblastoma) | Representation of phage in tumors (fold G7 control phage), WT-GBM (WT-GBM tumor) | Representation of phage in control brain tissue (fold G7 control phage), Norm. brain (normal brain) | binding to FN-EDB and TNC-C on phage and as synthetic FAM-labeled peptide (FN-EDB and TNC-C [3]) | binding of phage-displayed peptide to Fn-EDB and NRP1 [4]
1 |  |  | AGRGRLVRAKLAAALE | 0.1 fold | 0.4 fold | 0.3 fold | 0.2 fold | 23.9 fold | 0.0 fold |  | 
2 |  |  | AGVGRLRRAKLAAALE | 0.9 fold | 0.9 fold | 1.4 fold | 1.0 fold | 2.3 fold | 0.2 fold |  | 
3 |  |  | CAGRGRLVRC | 0.4 fold | 0.2 fold | 0.4 fold | 0.1 fold | 0.9 fold | 0.0 fold |  | 
4 |  |  | CRGVLRRAKLAAALE | 0.4 fold | 0.4 fold | 0.9 fold | 0.7 fold | 1.6 fold | 0.1 fold |  | 
5 |  |  | CSRRGILRAKPAAALE | 0.8 fold | 0.9 fold | 1.2 fold | 1.1 fold | 1.5 fold | 0.1 fold |  | 
6 |  |  | GGGGGGG [reference compound] | 1.0 fold | 1.0 fold | 1.0 fold | 1.0 fold | 1.0 fold | 1 fold |  | 
7 |  |  | GRLTRVR | 0.5 fold | 0.5 fold | 0.9 fold | 0.9 fold | 1.9 fold | 0.1 fold |  | 
8 | TNC-C + FN-EDB | did not interact | PPRRGLIKLKTS [PL1] |  |  |  |  |  |  | retained the ability to bind to both FN-EDB and TNC-C | 
9 | TNC-C + FN-EDB |  | PPRRGLIKLKTSSNTKENSVVASLRP [PL5] |  |  |  |  |  |  |  | 
10 |  |  | RGRLVRA | 0.4 fold | 0.3 fold | 1.8 fold | 0.8 fold | 3 fold | 0.1 fold |  | 
11 |  |  | RGRLVRAK | 0.1 fold | 0.3 fold | 3.0 fold | 0.5 fold | 23.8 fold | 0.2 fold |  | 
12 |  |  | RRLVRVA | 0.4 fold | 0.3 fold | 0.9 fold | 0.6 fold | 1.4 fold | 0.1 fold |  | 
13 |  |  | TSKQNSR [PL2] |  |  |  |  |  |  |  | bind specifically to both Fn-EDB and NRP1
14 |  |  | VGRVRFSRKLAAALE | 0.5 fold | 0.4 fold | 1.2 fold | 0.7 fold | 2.5 fold | 0.1 fold |  | 

— US12583888B2, “Bi-specific extracellular matrix binding peptides and methods of use thereof” (University of Tartu, priority 2019, dated 2026)
